Results from publication PMC11032447.

B1: mouse secretagogin [mouse] / helix-b of the Habc domain of mouse syntaxin-4 [mouse] (parent)
chain 1: MDNARRKTPARLDAACFWQIWQRFDKEEKGYIRETELDAFFDHLLAKSGTEDTLMEENVQKVKEQLMTSHNVSKEGRILMKELASMFLSEDENFLLFFRLETPLDNSVEFMQIWRKYDADSSGFISAAELCNFLRDLFLHHKKNISEAELEEYTSTMMKIFDKNKDGRLDLNDLARILALQENFLLQFKMDASSTEERKRDFEKIFAHYDVSKTGALEGPEVDGFVKDMMELVQPSISGVDLDKFREILLRHCDVNKDGKIQKSELALCLGLKINP
chain 2: TPLPEESMKQGLQNLREEIKQLGREVRAQLKAIEPQKE

Variants of: B1
Assay: ITC
Set-up: reference not given here
Details: with helix-b of the Habc domain of mouse syntaxin-4 [mouse]

Row | Variant | ratio to parent
1 | chain 1 V233A | 0.31
2 | chain 1 R198A | 1.99
3 | chain 1 L270A | 39.8

More lines, now with the values ahead:

Row | ratio to parent | Variant
4 | 3.98 | chain 1 M229A
5 | 12.8 | chain 1 M229E
